Drawing on patent publication US20160347814A1, this text covers gMFI for one substance.

For the test, the target named is Inducible counterpart receptor for VSTM5 on anti-CD3 activated human CD4+ T cells. In words: FACS on anti-CD3 activated primary human CD4+ T cells, 100 ug/ml; background of the isotype control on the whole cells.

Substance “Synagis (Palivizumab, anti-RSV humanized IgG1 mAb) (antibody)” came in with a gMFI of 0.335.
